Test [1] addresses HSV-1 glycoprotein E (HSV-1) (UniProt P04488). Briefly: co-IP; lysates of 293 cells infected with adenovirus expressing gE (48 h) or with HSV-1; IP with anti-gE Ab; western blot for Anx-A1; band ratio Anx-A1/gE.
Test [2] addresses HSV-1 gE expressed from recombinant adenovirus (HSV-1) (UniProt P04488). The test is described as above.

B1: annexin A1 (natural protein)
chain: MAMVSEFLKQAWFIENEEQEYVQTVKSSKGGPGSAVSPYPTFNPSSDVAALHKAIMVKGVDEATIIDILTKRNNAQRQQIKAAYLQETGKPLDETLKKALTGHLEEVVLALLKTPAQFDADELRAAMKGLGTDEDTLIEILASRTNKEIRDINRVYREELKRDLAKDITSDTSGDFRNALLSLAKGDRSEDFGVNEDLADSDARALYEAGERRKGTDVNVFNTILTTRSYPQLRRVFQKYTKYSKHDMNKVLDLELKGDIEKCLTAIVKCATSKPAFFAEKLHQAMKGVGTRHKALIRIMVSRSEIDMNDIKAFYQKMYGISLCQAILDETKGDYEKILVALCGGN
For B1, the Anx-A1/gE ratio in the co-precipitate was 0.51 in test [1] and 0.44 in test [2].

Values taken from article PMC9359538.
